Results published in article PMC8393709.

Legend:
[1] = target: HPV16 E6 Y43E/F47R, full length (RLuc- and YFP-tagged); assay: BRET; conditions: parent: est. 150; read off a plot
[2] = target: HPV16 E6N Y43E/F47R, amino acids 1 to 80 (RLuc- and YFP-tagged); assay: BRET binding curve; conditions: HEK 293T cells; value at the highest YFP/RLuc point of each curve (mutant x about 860, E6N x about 880); non-specific level (E6N + UL44) about 65; parent: est. 250; read off a plot
[3] = target: HPV16 E6N Y43E/F47R, amino acids 1 to 80 (RLuc- and YFP-tagged); assay: BRET; conditions: HEK 293T cells; RLuc- and YFP-tagged E6N fragments (amino acids 1 to 80); parent: est. 160; read off a plot

**Q.** How did the response [1] turn out when “HPV16 E6, wild-type, full length (RLuc-E6 and YFP-E6) (from UniProt P03126) Y43E; F47R” was run?
**A.** The response was 53 a.u. (mBR).

**Q.** What does the source list for “HPV16 E6N, N-terminal domain of E6, amino acids 1 to 80 (RLuc-E6N and YFP-E6N) Y43E; F47R”?
**A.** response [2]: 120 a.u. (mBR); response [3]: 70 a.u. (mBR)
